Measurements: publication PMC8086355, “The unusual structure of the PiggyMac cysteine-rich domain reveals zinc finger diversity in PiggyBac-related transposases”

Molecular target: T1, MBP-PgmD401A (Paramecium tetraurelia, UniProt A0DFJ7 1-1065, D401A)
T1 sequence: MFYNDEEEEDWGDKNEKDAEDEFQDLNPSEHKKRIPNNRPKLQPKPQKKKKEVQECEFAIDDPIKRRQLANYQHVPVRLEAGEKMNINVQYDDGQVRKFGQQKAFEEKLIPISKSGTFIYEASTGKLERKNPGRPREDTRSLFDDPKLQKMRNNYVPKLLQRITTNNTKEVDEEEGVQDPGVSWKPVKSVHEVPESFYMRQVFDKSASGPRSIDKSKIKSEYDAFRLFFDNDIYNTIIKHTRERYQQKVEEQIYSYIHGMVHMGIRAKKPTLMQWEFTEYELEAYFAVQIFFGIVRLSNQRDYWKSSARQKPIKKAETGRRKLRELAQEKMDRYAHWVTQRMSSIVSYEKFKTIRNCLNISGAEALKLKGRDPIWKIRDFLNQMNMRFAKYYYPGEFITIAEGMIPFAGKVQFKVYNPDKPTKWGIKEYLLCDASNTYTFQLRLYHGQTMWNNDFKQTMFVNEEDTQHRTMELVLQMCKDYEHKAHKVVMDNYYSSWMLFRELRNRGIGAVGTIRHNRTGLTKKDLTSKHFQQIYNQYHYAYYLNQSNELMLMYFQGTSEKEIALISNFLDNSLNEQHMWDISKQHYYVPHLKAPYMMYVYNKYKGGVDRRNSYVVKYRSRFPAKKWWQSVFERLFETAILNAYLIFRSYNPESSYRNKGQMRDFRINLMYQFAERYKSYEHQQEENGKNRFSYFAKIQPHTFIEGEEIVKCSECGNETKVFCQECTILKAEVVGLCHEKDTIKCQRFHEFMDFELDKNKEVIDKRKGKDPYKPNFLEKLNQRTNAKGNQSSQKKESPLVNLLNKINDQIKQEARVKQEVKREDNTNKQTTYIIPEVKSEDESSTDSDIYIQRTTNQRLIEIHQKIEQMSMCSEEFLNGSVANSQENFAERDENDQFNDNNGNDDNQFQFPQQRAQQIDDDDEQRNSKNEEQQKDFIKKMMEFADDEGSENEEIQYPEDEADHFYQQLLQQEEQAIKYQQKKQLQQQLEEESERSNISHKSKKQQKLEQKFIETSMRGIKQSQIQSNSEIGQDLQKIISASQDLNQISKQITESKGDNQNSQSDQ
Assay: DRaCALA; 400 nM protein; DRaCALA: 25 mM HEPES pH 7.5, 0.1 mg/ml BSA, 0.5 mM DTT, 100 mM NaCl, 25 nM DNA, no competitor, temperature not stated; EMSA: as in earlier paper, 5% acrylamide
Conditions: protein: recombinant; tags: N-terminal MBP; label: 32P at 5' end of top strand

B1: IES 51A1835 80-bp substrate (dsDNA)
DNA 1: ACTACTACATAATGCTAAACTCATTTATAGATGGATTGTTTTCCAAGTATCTATATCATCATGTGTTGCTAATAACCCTG
DNA 2: ATCGCAGGGTTATTAGCAACACATGATGATATAGATACTTGGAAAACAATCCATCTATAAATGAGTTTAGCATTATGTAGT
**Q.** Does B1 bind?
**A.** binds
